PMC5497592 (Biochemistry, 2011)

Target: the molecule itself
Test: cross-linking

B1: HpUreI, the urea channel from Helicobacter pylori (natural protein)
chain: MLGLVLLYVGIVLISNGICGLTKVDPKSTAVMNFFVGGLSIICNIVVITYSALHPTAPVEGAEDIAQVSHHLTSFYGPATGLLFGFTYLYAAINHTFGLDWRPYSWYSLFVAINTIPAAILSHYSDMLDDHKVLGITEGDWWAIIWLAWGVLWLTAFIENILKIPLGKFTPWLAIIEGILTAWIPAWLLFIQHWV
In the case of B1, the “stoichiometry N” value is reported as 3.
